# Experiment: soluble on expression in E. coli; label from the status in PepcDB or PDB records
row,Sequence,soluble on expression in E. coli
1,MGSDKIHHHHHHMTSFISVYLKIKYYICIYKGNLLVKSILLESSCVILIKYSAQYPNLSNSMIKMNKTISDVDFDDEQEIKLPLSNRQSIAILLGAGFSAPKGYPIGNDINKKIQNFDDSNIDFSPSGMLAISKDGHKPLFQIEGVRNIHQKYFIFCKRLINEYTKAHSNQFDYEQFYDFIKSDEAKDNRYRLLCQDLINKSDDYDNYLFNVVHIYNQMVLYLLKDKEGKSYYDGEPFKVNCADAYNEFLLYLSQQSKECIINIHTLNHDLLIESFNQTSNINGNISDGFDEYGSEYYGILEHDHRNYNCRLERYTGRYNTPIRLYKLHGSIDYVPFYRRDKNGFMKPEKYVKIKWGIGASNIIKGRKSKYGYDASPFEYHADFLTGTTSKIKRYDETLLFKKLFKKFRNNLSKANSLIIIGYGCKDKGINEMIKDNFDYKNKPSFIIDKYAGASVETFAQKINAKIIKESIERLDKTWFV,not soluble
2,MGSDKIHHHHHHMTSVEAFRGLYYPNKIGRLCFLSLEEVMGQNGVKALLRLADLQQYIDAYPPNDLKREFPFEAISKYSVALGTMYGPRGARGLELRAGRVAFSLGLKEFGPLLGMADLALKLMPITMKLKIVLNATAQTFDRFSDQSSHVEEERGRFVYHITRCSNCITRPEPGPVFYIARGILEEATAWVSGGRRFAVEQLSCMGQGNCSSCAFAIGKDPLE,not soluble
3,MGSDKIHHHHHHMTSVSPHKKAKALKPTSRRPAKELCSECGLCDTYYIHYVKEACAFINQQIGELEVETHTRSRHLDNPDELYFGVHQDMIAARKQQPIEGAQWTGIVSSIAIEMLNRGLVEGVVCVQNTKEDRFQPMPIIARTPEEILAARVNKPTLSPNLSVLEQIEKSGMKRLLVIGVGCQIQALRAVEKQLGLEKLYVLGTPCVDNVNRAGLQKFLETTSRSPETVVHYEFMQDFRVHFKHEDGSSETVPFFGLKTNKLKDVFAPSCMSCFDYVNSLADLVVGYMGAPFGWQWIVVRNDTGKEMLDLVQDQLDTQPVTSKGNRKEAVQQSIPAYDKGVTLPMWAAKLMGVVIEKIGPKGLEYARFSIDSHFTRNYLYVKRNHPEKLEAHVPEFAKRIVEQYKLPE,not soluble
4,MGSDKIHHHHHHMTTDILNISEEQLVDYSKAHNEPSWMTELRKKALKLTETLEMPKPDKTKLRKWDFDSFKQHDVKGDVYQSLSQLPESVREIIDVDHSKNLVIQHNNTIAYTQVDDNASKDGVIVEGLADALMNHSDLVQKYFMKDAVTVDEHRITALHTALVNGGVFVYVPKNVVVEHPVQYVVLHDDENASFYNHVIIVTEESAEVTYVENYLSNASGEGNQLNIISEVIAGANSNITYGSVDYMDKGFTGHIIRRGITEADASINWALGLMNEGSQIIDNTTNLFGDRSTSSLKSVVIGTGEQKINLTSKIVQYGKETDGYILKHGVMKEHASSVFNGIGYIKHGGTKSIANQESRVLMLSEHARGDANPILLIDEDDVQAGHAASVGRVDPDQLYYLMSRGISQREAERLVIHGFLDPVVRELPIEDVKRQLREVIERKVSK,not soluble
5,MGSDKIHHHHHHMTTKKFRMEDVGLSKLKVEKNPKDVKQTEWKSVLPNEVYRVARESGTETPHTGGFNDHFEKGRYVCLCCGSELFNSDAKFWAGCGWPAFSESVGQDANIVRIVDRSHGMHRTEVRCKTCDAHLGHVFNDGPKETTGERYCINSVCMAFEKKD,not soluble
6,MGSDKIHHHHHHMTTLLRTRRFPPLNALRAFEAAARHLNFRLAADELGVTQGAVAQQVRHLEDVVAVQLFRRLPRGLALTREGLEYFSSVQRALQIISDATDALGERPTVLAVSTTPSFASKWLIPRLADFGRLHPDIEVRVIADERLASFRADGVDIAIRLSKPPFPAGLAAELLAPLDIFAVASPKLLDSGPPIRTPADLSTHALLHDAHDLWPEFIEKLGGKGRADPTKGPRFSQSLLAIDAAVAGQGIALTSEPLVERDIAEGRLRRVFDFSFPMSLGFYVVFPQANAHSEALQAMRRWLFAQYGKA,not soluble
7,MGSDKIHHHHHHMTTNKEQYKVHQEPYYQAQGREVQLYEAAYRNRLPVMVKGPTGCGKSRFVEYMAWKLNKPLITVACNEDMTASDLVGRYLLEANGTRWLDGPLTTAARIGAICYLDEVVEARQDTTVVIHPLTDHRRTLPLDKKGELIEAHPDFQLVISYNPGYQSLMKDLKQSTKQRFAAFDFDYPDAALETTILARETGLDETTAGRLVKIGGVARNLKGHGLDEGISTRLLVYAATLMKDGVDAGDACRMALVRPITDDADIRETLDHAIDATFA,not soluble
8,MGSDKIHHHHHHMTTQSFIATKEHRRFAEFADAVRRQHTIGICYGHAGIGKTLSAKRYANWHKAENLIEQWGPRDDADYQIYAALARARTVFYTPAVLTSPKQIHAELEHISTRVSICVDQHLEKIGKKTGPHTRTGKHVELLIIDESERLNATALELLRDRYDRDNIALILIGMPGIEKWFSRYAQLYSRVGFAHEYRPLAQEELNFVLERRWHKLGQTLDPEDFTDAQAIAAVARITRGNFRLIDRLFTQIERVMKINELSTITDDVIEAARSTLVIGIS,not soluble
9,MGSDKIHHHHHHMTTTIQALEKHLQVRLLNRTTRKISLTPDGAVYYDRTARILADVADIESSFHDAERGPRGQLRIDVPVSIGRLILIPRLRDFHARYPDIDLVIGLNDRPVDLVGEAVDCAIRVGELKDSSLIARRIGTFQCATAASPIYLEKYGEPTSIEDLQKNHKAIHFFSSRTGRNFDWDFVVDDLIKSVSVRGRVSVNDGDAYIDLALQGFGIIQGPRYMLTNHLESGLLKEVLPQWTPAPMPISAVYLQNRHLSLKVKVFVDWVAELFAGCPLLGGTALPFDQKCEFACDKETGHEYTIRTLVEQHNIAEAYTLKT,not soluble
10,MGSDKIHHHHHHMTVAKGSIHGIIGENGAGKSTLMSILYGFYQADSGEIKIGGQSTVIKDSQAAISSGIGMVHQHFMLVENFTVLENVMLGAEGGALLAKGTAAARASLKQLETDYGLDVDPDAVVEELPVGRQQRVEILKALYRGADILILDEPTGVLTPAEADHLFKILRVLRDQGKTVILITHKLREIMAITDTVSVMRRGEIVATRKTVETSVEELAELMVGRRVLLRVDKQPAQPRDVLLSVRNLTVKDSRGVIMVDDVSFDVREGEIVGIAGVAGNGQSELLEAITGIRKPMSGEILIAGKLVTGYDPARLRDLGLAHIPEDRHHMGLVLPFEESQNAILGYHRDERYGKGMFLDPKAIRAAAEVEIAKYDIRPPNPRLKTANFSGGNQQKIVVAREIERDPNVLIIGQPTRGVDIGAIEFIHRRIVETRDKGKALLLVSVELDEIRSLSDRILVMFAGKVVGEKTADADEQTLGLMMAGIAA,not soluble
11,MGSDKIHHHHHHMTVKSSTSSLHDRSSTSTSLMPGFADPVFDAQAVFRASLLATAYPGRVVPVDRALASPRPFSSATAALCLTLMDFETLAWLDRQAASGEAVAWLRFHCGLPVTDDPMKARFAVVTDALTMPRLVEFHPGDVEYPDRSMTLIIQVPSFNEGPATTWTGPGIKTSARVSIGGLPFWYWSDWEMNRELYPRGIDVIFTNGNALVGLPRTIAVEA,not soluble
12,MGSDKIHHHHHHMTVLHSVDFFPSGKAPVAIEPRLPQAAFPEHHHDFHEIVIVEHGTGIHVFNGQPYTISGGTVCFVRDHDRHLYEHTDNLCLTNVLWRSPDAFQFLAGLDQLLPQEQDGYYPSHWRVNQSVLQQVRQLVGLMERAGDGMDAPAVANREILFMQLLVLLRRSSLMEGATNNDAKLNQLMAWLEDHFAEEVCWEAVAEQFSLSLRTLHRQLKQHTGLTPQRYLNRLRLIKARHLLRHSDHSVTEIAYRCGFGDSNHFSTLFRREFNWSPRDIRQGRDAIIQ,not soluble
13,MGSDKIHHHHHHMTVLHSVDFFPSGNASVAIEPRLPQADFPEHHHDFHEIVIVEHGTGIHVFNGQPYTITGGTVCFVRDHDRHLYEHTDNLCLTNVLYRSPDRFQFLAGLNQLLPQELDGQYPSHWRVNHSVLQQVRQLVAQMEQQEGENDLPSTASREILFMQLLLLLRKSSLQENLENSASRLNLLLAWLEDHFADEVNWDAVADQFSLSLRTLHRQLKQQTGLTPQRYLNRLRLMKARHLLRHSEASVTDIAYRCGFSDSNHFSTLFRREFNWSPRDIRQGRDGFLQ,not soluble
14,MGSDKIHHHHHHMTVRDFHYYEPAEGHGLSHNPLNALVAPRPIGWISSRDAQGRVNLAPYSFFNAFNYDPPIIGFSSIAWKDSVQNASETREFTWNLVTRELGDQMNQTSSPLPHGEDEFQFAGLTAVAGRKVNVPRVGESRAAMECKVIDIVQFRNTAGEKVGGWLVLGEVVAVYIDKTLLKDGVYQTAEAYPIMRSGGLNDYVQVSPDNVFQIARLAGASSPSSHGKG,not soluble
15,MGSDKIHHHHHHMTYTSLQSPADKDYLYDIRVAHLYGNLLNTYGDNGNVLMLKYVGEKLGIRMTFDIVSIGDDFDANKYDMVFFGGGQDYEQSIVAKDLPNKRSAIASFIQNNKVVLAICGGFQLLGQYYVQANGVRIDGIGVMGHYTLNQKDNRYIGDIKIHNDEFNETYYGFENHQGRTFLSDDEKPLGRVIYGNGNNKEDGSEGVHYKNVFGSYFHGPILSRNANLAYRLVTTALHNKYGIDIQLPRYEDILSLEVAEEYGDVKSKAEFEK,not soluble
16,MGSDKIHHHHHHMVASKQGLDLFQASGEPYEIGYRLGELARPVFAGYMRQSRAWQAVRRWRGAPFVHKLREAAHAHFPALLVELDGMAAGLGWTAEDMFLWNCRGELIHNVPDGCTTLAAHVGDTRFIAHNEDGDPFLGERCALVEVRPAGKPGFVSFHYPGSLPGHTFAASRAGVVQAINNLRIRAPVAGVPRMILARAVLDAASLDEALHILRDTPAASGFHHTLGCAGDARLVSVEVSARRCSVQTVPNLYGHANHMIHPGCEAEAQIVTDSSRERQARVNALLPALSRPLQPAALLDVLQDRAPSGLPIYRDDPLDPDGENTLATALFEIGGAGVSMKVYRQGQRAFDAFIARAACGQTGA,not soluble
17,MGSDKIHHHHHHMVGENMDIFVSDYEKQYKEILTGFDPTTFSETWVENQQWQLDFYVEKTRNNQDVFDLLNHESSVYLDGQEFVVKQLKRGAVGKIVYSEVTATHIYFTMQDDYQYNAISGSKSAKDCLTHIFAADKQGFSFELIDKNKVLENITQENFGNGNLLKLVQEVLEDYKLVMLADNKRLTFIPSEDYGEHTENEIRYNKHTNEVDFDIDTLSLRTQIKGYGKVDSNGNNYFPPVTFTSPESAKWGVRIQEPLSDERYTTSSSMLRRLKLELQDYPATTGNISLKLKYECGKGDYVMFVYEPLGLLYEVQIVAYKKYIFTNKPPELTLSNNKKTMVSIMVQLAKAIKRGAK,not soluble
18,MGSDKIHHHHHHMVGMLERTIAGLQRNNMAGYFVHNRQELMALLSGLMEKGQTVGCGDSVTLEELGVFDFLRKGDYIFYDKYVPGLTSEDKRRLYIQNFAADTFITGTNAVTTDGKLFNIDGNGSRVAPMIYGPRQVIVVVGTNKITEDVESAIQRVRQIAAPMDAKRLKKETPCTKLNRCVDCRHPQRICNDFVLITGQFVKDRIKVIIIDMEIGY,not soluble
19,MGSDKIHHHHHHMVIIHSKDLVNWTIKGHVVSDLRQISEEMNWTRMNRYGRGIWAGAIRYYQGKFYVYFGTPDEGYFMSTATDPAGPWEPLHCVKAEKGWDDCCPFFDDDGQLYFVGTHFADKYKTYLYRMTPDGKTLIENSKILINEGYGREASKLYKINGTYYHFFSEVKNGGRYIMMQRSSSITGPYLERKQLSHVQREYNEPNQGGLVEGPDRKWYFFTHHGTGDWAGRIASLLPVYWVDGWPIIGEVGQDGIGTMVWQAAKPSNEYPVRTPQSSDDFSKSVLSPQWEWNYQPRDEMWSLTERPGNLRLKAFRPLVTDNLLKAGNTLTQRCFRTNKNEVIVKMNIEGMVDGQKAGLCHYSKSYAMVGVRQSGKDRNLEFQTNKEKITGPAIKGNKVWIKSVWGLDGKSQFSYSTDGRKFTPFGEVYQLEWGYYRGSRIGIYCFNNIADAGYIDVDEFIYLY,not soluble
